Experimental data from paper PMC8270467, “A MYB4-MAN3-Mannose-MNB1 signaling cascade regulates cadmium tolerance in Arabidopsis”.

B1: ProMAN3 P2 probe (dsDNA)
DNA 1: AAGATGGGTTTGCTTGGTGAGACCACAAGA
DNA 2: TCTTGTGGTCTCACCAAGCAAACCCATCTT
B2: ProMAN3 P4 probe (dsDNA)
DNA 1: AGTTAGTCAATGAACGGTTTTCAAATAAAG
DNA 2: CTTTATTTGAAAACCGTTCATTGACTAACT
B3: ProMAN3 P3 probe (dsDNA)
DNA 1: CAAATCATATAGTTTGGTGACTGATTTCAA
DNA 2: TTGAAATCAGTCACCAAACTATATGATTTG
B4: ProMAN3 P1 probe (dsDNA)
DNA 1: GGTTTACAAATCAACAACCACTGAACTTTT
DNA 2: AAAAGTTCAGTGGTTGTTGATTTGTAAACC

Target: MYB4-MBP (Arabidopsis thaliana, UniProt Q9SZP1 1-282)
Sequence (Q9SZP1 whole entry): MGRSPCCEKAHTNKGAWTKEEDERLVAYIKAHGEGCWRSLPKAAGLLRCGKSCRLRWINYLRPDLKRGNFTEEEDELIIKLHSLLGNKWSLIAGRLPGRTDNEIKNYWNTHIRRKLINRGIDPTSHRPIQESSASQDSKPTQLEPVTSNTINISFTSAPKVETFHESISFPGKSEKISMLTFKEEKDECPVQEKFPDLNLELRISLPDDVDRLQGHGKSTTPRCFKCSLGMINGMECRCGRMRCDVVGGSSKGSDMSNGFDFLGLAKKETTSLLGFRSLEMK
Assay: EMSA; LightShift Chemiluminescent EMSA Kit (Thermo), manufacturer's protocol; buffer, salt, pH and temperature not stated
Settings: protein: recombinant; tags: MBP; label: 3' biotin on sense strand; blunt

Binding result, binds:
B1
B2
B3
B4
